Results on five molecules are retold here after patent US12344663B2, “Anti-C3 antibodies and antigen-binding fragments thereof and their uses for treating eye or ocular diseases” (CDR-Life AG, priority 2021, dated 2025).

Data set [1] is described as follows: Thermal stability by differential scanning fluorimetry (DSF). As to conditions: for Melting temperature: DSF, Example 4. The class given is physicochemical. The text has this: Differential scanning fluorimetry (DSF) measures protein unfolding by monitory changes in fluorescence as a function of temperature.
The temperature of protein unfolding (Tm) is tied to the stability of antibodies, specifically to aggregation during storage and long-term stability of the therapeutic product. The thermal transitions of monoclonal antibody CH2 and CH3 domains are typically invariant for different antibodies within an isotype, with the CH2 domain unfolding prior to the CH3 domain.
For orientation: Differential scanning fluorimetry follows unfolding on heating by fluorescence.

The next data set deals with human C3 (Homo sapiens, UniProt P01024). As to the kind of experiment: SPR (Biacore T100) binding to human C3. As to conditions: C3 and C3b. As for the experimental part: The kinetic parameters of the candidates are determined using a surface plasmon resonance (SPR) and Biacore T100 device. C3 and different variants thereof (Table 19) are immobilized as a ligand on a HC30M SPR sensor chip (XanTec bionanalytics, Germany) using EDC/[…] linking chemistry. Five increasing concentrations of each molecule (analyte) are consecutively injected using the single cycle kinetics (SCK) mode to determine the kinetic parameters. Regeneration between the candidates is done with 10 mM glycine*HCl, 2 M NaCl, pH 3.5. The data is fitted to a 1:1 Langmuir binding model and the kinetic parameters of on-rate (ka), off-rate (kd), and affinity […] were determined.
For orientation: Surface plasmon resonance follows binding to a sensor surface in real time, without labels.

The subject of a further data set is complement pathways. As to the kind of experiment: Complement inhibition assays, comparison with parental Clone IV. It counts as biochemical, human. As to conditions: in words. The text has this: To identify antibodies that block all 3 complement pathways, antibodies are screened using an enzyme immunoassay for the qualitative determination of functional classical, lectin and alternative complement pathways in human serum using the WEISLAB® Complement system Screen (Svar Life Science AB, Malmö, Sweden).

Data set [2] in a line: Concentration-dependent monomeric stability study at 37° C. The class given is physicochemical. As to conditions: for Loss in monomeric content after 2 weeks of incubation at 37° C.: Clone XIII at 150 mg/mL, Clone XIV at 50 mg/mL; for Loss in monomeric content with concentration: Clone XIII concentrated to 150 mg/mL, Clone XIV to 50 mg/mL.

human C3, sequence (P01024 23-1663): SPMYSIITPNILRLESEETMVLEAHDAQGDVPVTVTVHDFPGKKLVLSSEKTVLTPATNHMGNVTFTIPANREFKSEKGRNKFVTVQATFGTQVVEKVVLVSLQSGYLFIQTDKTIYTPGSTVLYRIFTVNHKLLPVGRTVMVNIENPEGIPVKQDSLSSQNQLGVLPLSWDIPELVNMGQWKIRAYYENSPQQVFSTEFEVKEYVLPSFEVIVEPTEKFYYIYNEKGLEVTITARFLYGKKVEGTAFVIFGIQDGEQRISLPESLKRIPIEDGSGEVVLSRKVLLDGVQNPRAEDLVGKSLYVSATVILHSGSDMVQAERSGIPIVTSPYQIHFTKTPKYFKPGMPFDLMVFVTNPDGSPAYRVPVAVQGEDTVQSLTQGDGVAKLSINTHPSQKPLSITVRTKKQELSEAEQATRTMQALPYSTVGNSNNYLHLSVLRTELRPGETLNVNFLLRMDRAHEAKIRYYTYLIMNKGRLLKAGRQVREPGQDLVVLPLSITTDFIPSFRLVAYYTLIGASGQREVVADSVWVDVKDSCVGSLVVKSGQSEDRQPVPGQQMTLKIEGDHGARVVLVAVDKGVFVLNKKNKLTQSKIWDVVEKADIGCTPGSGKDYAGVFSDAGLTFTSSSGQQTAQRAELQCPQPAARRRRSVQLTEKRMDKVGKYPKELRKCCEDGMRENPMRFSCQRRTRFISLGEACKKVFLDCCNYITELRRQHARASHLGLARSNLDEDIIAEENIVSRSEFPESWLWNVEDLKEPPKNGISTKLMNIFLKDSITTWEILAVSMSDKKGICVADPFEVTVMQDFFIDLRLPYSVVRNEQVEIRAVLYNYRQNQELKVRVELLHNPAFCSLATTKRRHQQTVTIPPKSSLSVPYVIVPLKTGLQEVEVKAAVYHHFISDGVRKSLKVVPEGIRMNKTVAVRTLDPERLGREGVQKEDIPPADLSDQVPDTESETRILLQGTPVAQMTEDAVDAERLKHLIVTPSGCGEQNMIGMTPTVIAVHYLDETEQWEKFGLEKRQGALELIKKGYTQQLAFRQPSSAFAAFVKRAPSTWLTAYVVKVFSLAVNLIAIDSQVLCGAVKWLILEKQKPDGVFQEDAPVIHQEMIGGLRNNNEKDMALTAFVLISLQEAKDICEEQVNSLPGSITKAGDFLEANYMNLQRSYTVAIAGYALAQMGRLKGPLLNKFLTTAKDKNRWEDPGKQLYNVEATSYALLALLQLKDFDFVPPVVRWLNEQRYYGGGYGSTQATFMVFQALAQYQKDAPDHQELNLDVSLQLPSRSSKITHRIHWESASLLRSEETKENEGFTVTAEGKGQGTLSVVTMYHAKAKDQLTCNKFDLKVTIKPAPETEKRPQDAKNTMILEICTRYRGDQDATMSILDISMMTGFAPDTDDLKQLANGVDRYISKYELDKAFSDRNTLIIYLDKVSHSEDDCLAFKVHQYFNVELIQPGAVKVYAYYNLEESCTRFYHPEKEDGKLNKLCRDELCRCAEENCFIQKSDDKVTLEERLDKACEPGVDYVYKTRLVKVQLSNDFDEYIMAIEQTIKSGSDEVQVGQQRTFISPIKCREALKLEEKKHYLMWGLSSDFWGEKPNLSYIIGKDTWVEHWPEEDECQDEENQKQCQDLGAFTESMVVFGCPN

B1: Clone VI: Clone V with additional rabbit residues replaced by germline, SEQ ID NO: 34 (protein)
scFv: MQLVLTQSPSASASLGASVKLTCTLSSAHKTYTIDWYQQQPEKGPRYLMQLKSDGSYTKGTGVPDRFSGSSSGAERYLTISSLQSEDEADYYCGTDYGGGYVFGGGTKLTVLGGGGGSGGGGSGGGGSGGGGSQVQVVESGGGSVQPGRSLRLSCAASGFSLYNYAMNWVRQAPGKGLEWIGIINTDGNTNYASWAKGRFTISTDNSKNTLYLQMNSLRAEDTASYYCARAVGYHHHALDPWGQGTSVTVSS
modifications: ScFv
In the case of B1, the “Increase of thermal stability of the construct” value in data set [1] (versus preceding variant) is 11.7 °C. The “Binding affinity to C3 and C3b compared to parental molecule Clone IV” value in the data set with human C3 (in words) was “comparable to the parental molecule”.

B2: Clone XII: scFv combining affinity maturation substitutions and disulfide bond stabilization, SEQ ID NO: 40 (protein)
scFv: MQLVLTQSPSASASLGASVKLTCTLSSAHKTYTIDWYQQQPEKCPRYLMQLKSEGSYTKGTGVPDRFSGSSSGAERYLTISSLQSEDEADYYCGTDYGGGYVFGGGTKLTVLGGGGGSGGGGSGGGGSGGGGSQVQVVESGGGSVQPGRSLRLSCAVSGFSLYNYAMNWVRQAPGKGLEWIGIINVGGGTNYASWAKGRFTISTDNSKNTVYLQMNSLRAEDTASYYCARAVGYHHARLDPWGCGTSVTVSS
modifications: ScFv
On to B2, for which, in data set [1], the Melting temperature is 70.4 °C.

B3: Clone VIII: affinity maturation hit scFv, SEQ ID NO: 36 (protein)
scFv: MQLVLTQSPSASASLGASVKLTCTLSSAHKTYTIDWYQQQPEKGPRYLMQLKSEGSYTKGTGVPDRFSGSSSGAERYLTISSLQSEDSAVYYCGTEGVGGYVFGCGTKLTVLGGGGGSGGGGSGGGGSGGGGSQVQVVESGGGSVQPGRSLRLSCAVSGFSLYNYAMNWVRQAPGKCLEWIGIINVGGGTNYASWAKGRFTISTDNSKNTVYLQMNSLRAEDTASYYCARAVGYHHSRLDPWGQGTSVTVSS
modifications: ScFv
B3: the “Increase in the binding affinity to C3 and C3b compared to Clone IV” value with human C3 is “approximately 10 fold”. The “Complement inhibition activity compared to parental molecule Clone IV” value in the data set with complement pathways is “superior performance”.

B4: Clone XIII: scFv combining affinity maturation substitutions and disulfide bond stabilization, SEQ ID NO: 41 (protein)
scFv: MQLVLTQSPSASASLGASVKLTCTLSSAHKTYTIDWYQQQPEKCPRYLMQLKSEGSYTKGTGVPDRFSGSSSGAERYLTISSLQSEDEADYYCGTEGVGGYVFGGGTKLTVLGGGGGSGGGGSGGGGSGGGGSQVQVVESGGGSVQPGRSLRLSCAVSGFSLYNYAMNWVRQAPGKGLEWIGIINVGGGTNYASWAKGRFTISTDNSKNTVYLQMNSLRAEDTASYYCARAVGYHHARLDPWGCGTSVTVSS
modifications: ScFv
In the case of B4, in data set [1], the Melting temperature came to 67.7 °C. In addition, in data set [2], the “Loss in monomeric content after 2 weeks of incubation at 37° C.” value worked out at 2.2% and the “Loss in monomeric content with concentration” value is “no loss”.

B5: Clone XIV: scFv combining affinity maturation substitutions and disulfide bond stabilization, SEQ ID NO: 42 (protein)
scFv: MQLVLTQSPSASASLGASVKLTCTLSSAHKTYTIDWYQQQPEKCPRYLMQLKSEGSYTKGTGVPDRFSGSSSGAERYLTISSLQSEDEADYYCGTEGVGGYVFGGGTKLTVLGGGGGSGGGGSGGGGSGGGGSQVQVVESGGGSVQPGRSLRLSCAVSGFSLYNYAMNWVRQAPGKGLEWIGIINVGGGTNYASWAKGRFTISTDNSKNTVYLQMNSLRAEDTASYYCARAVGYHHSRLDPWGCGTSVTVSS
modifications: ScFv
Take B5: the Melting temperature in data set [1] was 67.2 °C. In data set [2], the “Loss in monomeric content after 2 weeks of incubation at 37° C.” value is listed as 2.3% and the “Loss in monomeric content with concentration” value amounted to 1.6%.
